Data on 3 molecules can be found in patent publication US20250257126A1 (CAMBRIDGE ENTERPRISE, published 2025).

For experiment [1], the target named is T1, human LGR5-eGFP transgene (human, UniProt O75473 22-907).
T1 construct: Tested on live or fixed cells and as cell lysates on western blots; also called hLGR5-eGFP; LGR5-GFP
T1 sequence: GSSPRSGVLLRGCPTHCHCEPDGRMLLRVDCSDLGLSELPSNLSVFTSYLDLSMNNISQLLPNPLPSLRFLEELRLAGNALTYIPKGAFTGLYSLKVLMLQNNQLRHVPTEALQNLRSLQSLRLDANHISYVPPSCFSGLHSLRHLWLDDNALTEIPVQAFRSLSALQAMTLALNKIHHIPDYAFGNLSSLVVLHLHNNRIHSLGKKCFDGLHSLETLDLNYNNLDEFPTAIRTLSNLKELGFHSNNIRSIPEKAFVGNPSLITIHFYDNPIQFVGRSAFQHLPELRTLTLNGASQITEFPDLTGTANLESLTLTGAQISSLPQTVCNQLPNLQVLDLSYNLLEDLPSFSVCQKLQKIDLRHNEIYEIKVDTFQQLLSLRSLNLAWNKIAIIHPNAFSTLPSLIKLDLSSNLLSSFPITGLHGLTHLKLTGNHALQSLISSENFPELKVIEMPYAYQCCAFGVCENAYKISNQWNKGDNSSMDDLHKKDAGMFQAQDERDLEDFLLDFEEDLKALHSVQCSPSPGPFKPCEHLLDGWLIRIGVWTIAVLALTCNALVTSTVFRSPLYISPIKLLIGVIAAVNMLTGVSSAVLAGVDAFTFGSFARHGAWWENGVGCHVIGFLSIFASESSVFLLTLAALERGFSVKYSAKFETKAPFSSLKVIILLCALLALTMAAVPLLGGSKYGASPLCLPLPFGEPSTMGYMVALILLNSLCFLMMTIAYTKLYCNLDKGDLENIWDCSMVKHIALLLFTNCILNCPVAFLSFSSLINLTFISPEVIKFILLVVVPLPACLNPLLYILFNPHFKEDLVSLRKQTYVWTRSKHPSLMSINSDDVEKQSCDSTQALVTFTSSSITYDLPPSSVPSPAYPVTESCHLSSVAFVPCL
The experiment is described as follows: western blot of lysates of HEK293T cells expressing mLGR5, hLGR5 or cynoLGR5 transgenes, probed with hybridoma clone 1.

For experiment [2], the target named is T2, murine LGR5 transgene (mouse, UniProt Q9Z1P4 22-907).
T2 construct: whole, on cells; Overexpressed in HEK293T cells with N-terminal HA tag, V2 receptor tail and eGFP; also tested as lysate; also called mLGR5; mLGR5-eGFP
T2 sequence (looked up): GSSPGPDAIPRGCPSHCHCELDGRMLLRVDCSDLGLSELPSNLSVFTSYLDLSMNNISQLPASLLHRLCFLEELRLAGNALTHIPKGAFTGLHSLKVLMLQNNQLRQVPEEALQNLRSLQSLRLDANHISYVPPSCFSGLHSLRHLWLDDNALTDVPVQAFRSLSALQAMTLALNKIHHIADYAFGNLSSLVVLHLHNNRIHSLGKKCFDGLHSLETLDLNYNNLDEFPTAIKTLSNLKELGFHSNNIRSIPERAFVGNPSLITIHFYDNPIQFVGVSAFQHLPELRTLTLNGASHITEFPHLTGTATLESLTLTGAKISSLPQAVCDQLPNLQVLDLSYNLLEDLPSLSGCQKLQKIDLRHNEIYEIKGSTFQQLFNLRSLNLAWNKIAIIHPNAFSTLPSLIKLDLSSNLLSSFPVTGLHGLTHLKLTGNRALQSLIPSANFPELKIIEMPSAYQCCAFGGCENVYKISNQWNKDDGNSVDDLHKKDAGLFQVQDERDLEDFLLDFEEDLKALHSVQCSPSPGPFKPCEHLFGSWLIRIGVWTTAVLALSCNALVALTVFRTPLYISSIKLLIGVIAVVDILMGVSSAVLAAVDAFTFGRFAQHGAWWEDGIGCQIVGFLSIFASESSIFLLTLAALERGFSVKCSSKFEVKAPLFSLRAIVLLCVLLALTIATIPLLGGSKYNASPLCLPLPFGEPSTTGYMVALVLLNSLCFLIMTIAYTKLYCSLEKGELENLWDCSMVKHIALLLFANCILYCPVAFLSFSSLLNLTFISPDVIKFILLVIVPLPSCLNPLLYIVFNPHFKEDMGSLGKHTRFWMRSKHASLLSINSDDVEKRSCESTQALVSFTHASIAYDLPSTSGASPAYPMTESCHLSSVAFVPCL
The experiment is described as above.

In experiment [3] the target is T3, human LGR4 transgene (human, UniProt Q9BXB1 25-951).
T3 construct: whole, on cells; Overexpressed in HEK293T cells with N-terminal HA tag, V2 receptor tail and eGFP; also tested as lysate; also called hLGR4; LGR4-eGFP
The experiment is described as follows: immunofluorescence of HEK293T cells expressing LGR-eGFP transgenes with α-LGR5v4. The text has this: (§1) B. Indirect immune fluorescence analysis of human and murine LGR family expressing HEK293T cells using the a-LGR5v4 antibody (in red), the Alexa488-coupled Phalloidin F-actin probe alongside eGFP fluorescence imaging. In the bottom row of images, LGR5-expressing HEK293T cells were stained with a-LGR5v6. C. H&E staining of tissue sections from a-LGR5v6-ADC (top row) and a-LGR5v4-ADC (bottom row) treated mice.

In experiment [4] the target is T4, murine LGR4 transgene (mouse, UniProt A2ARI4 25-951).
T4 construct: whole, on cells; Overexpressed in HEK293T cells with N-terminal HA tag, V2 receptor tail and eGFP; also tested as lysate; also called mLGR4
The experiment is described as above.
Source text: as §1

Experiment [5] has as its target T2, murine LGR5 transgene. The experiment is described as follows: western blot of lysates of HEK293T cells expressing the LGR transgenes.
In experiment [6] the target is T1, human LGR5-eGFP transgene. The experiment is described as follows: western blot of HEK293T lysates expressing the human LGR family transgenes.

B1: α-LGR5 clone 1 (antibody, mouse IgG1, kappa, V domains shown)
VH: QVQLQQPGAELVKPGASVKLSCKASGYTFTSYWMQWVKQRPGQGLEWIGEIDPSDYYTNYNQKFKGKATLTVDTSSSTAYMQLSSLTSEDSAVYYCARSLSGYVDYWGQGTTLTVSS
VL: DIQMTQSTSSLSASLGDRVTINCRASQDIRNRLNWYQQKPDGTVKLLISYRSRLQSGVPSRFSGSGSGTEYSLTISNLEQEDIATYFCQQGNTLPPTFGGGTKLEVRR
notes: Murine monoclonal antibody from hybridoma; also called hybridoma clone 1; antibody 1
In the case of B1, the binding result in experiment [1] is reported as “binds”; in experiment [2], “no binding”.

B2: α-LGR5 variant 4 (antibody, human IgG1, kappa, V domains shown)
VH: QVQLVQSGAEVKKPGASVKVSCKASGYTFTNYWMQWVRQAPGQGLEWIGEIDPSDSYTNYNQKFQGRVTLTVDTSTSTAYMELSSLRSEDTAVYYCARSLSGYVDYWGQGTTVTVSS
VL: EIVMTQSPATLSLSPGERATLSCRASQDISNRLNWYQQKPGQAVRLLISYRSRRHTGIPARFSGSGSGTDYTLTISSLEPEDFAVYYCQQGNSLPPTFGGGTKLEIKR
notes: Humanized antibody; also called α-LGR5v4; clone 2.4
Regarding B2, the binding result in experiment [3] and in experiment [4] was “no binding” each time.

B3: hybridoma clone 12 (antibody, V domains shown)
VH: EVQLQQSGPELVKPGASVKISCKASGYTFTDYYMNWVKQSHGKSLEWIGDINPNNGGTIYNQKFKGKATLTVDKSSSTAYMELRSLTSEDSAVYYCASGYLFDYWGPGTTLTVSS
VL: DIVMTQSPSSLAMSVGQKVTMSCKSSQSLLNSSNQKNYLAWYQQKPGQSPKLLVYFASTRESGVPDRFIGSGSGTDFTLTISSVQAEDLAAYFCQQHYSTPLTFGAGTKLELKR
notes: Murine antibody; also called antibody 12
As to B3, the binding result is “no binding” in experiment [5] and “binds” in experiment [6].
